{
  "source": "patent US20220220200A1",
  "key": {"[1]": {"target": "CD19 on the cell surface (native CD19 antigen) (human) (UniProt P15391)", "sequence (P15391 20-556)": "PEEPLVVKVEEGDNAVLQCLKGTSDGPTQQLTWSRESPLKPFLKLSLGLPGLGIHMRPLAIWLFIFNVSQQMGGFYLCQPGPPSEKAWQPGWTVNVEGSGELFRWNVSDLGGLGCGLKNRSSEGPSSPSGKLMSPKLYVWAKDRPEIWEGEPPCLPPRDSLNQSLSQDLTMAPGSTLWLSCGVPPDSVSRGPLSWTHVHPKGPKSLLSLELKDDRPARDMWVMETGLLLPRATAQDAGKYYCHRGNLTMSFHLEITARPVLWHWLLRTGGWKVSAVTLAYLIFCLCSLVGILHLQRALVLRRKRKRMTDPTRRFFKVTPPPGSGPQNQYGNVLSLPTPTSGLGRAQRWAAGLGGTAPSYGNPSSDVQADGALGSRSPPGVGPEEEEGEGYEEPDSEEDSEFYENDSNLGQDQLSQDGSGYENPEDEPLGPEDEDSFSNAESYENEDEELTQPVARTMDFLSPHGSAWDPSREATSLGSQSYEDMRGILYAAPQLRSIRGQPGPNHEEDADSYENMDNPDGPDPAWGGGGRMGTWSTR", "test": "flow cytometry, phage clone on JVM-2 cells (CD19-positive)"}, "[2]": {"target": "CD19 on the cell surface (native CD19 antigen) (human) (UniProt P15391)", "test": "flow cytometry, phage clone on K562-CD19 cells (CD19-positive)"}, "[3]": {"target": "CD19 on the cell surface (native CD19 antigen) (human) (UniProt P15391)", "test": "flow cytometry, phage clone on Raji cells (CD19-positive)"}},
  "data": [
    {"substance": "FMC-63 (humanized mouse anti-human CD19 phage antibody clone) (scFv)", "values": [
      {"measurement": "MFI", "setting": "[1]", "result": 22.4},
      {"measurement": "MFI", "setting": "[2]", "result": 38.1},
      {"measurement": "MFI", "setting": "[3]", "result": 55.8}
    ]}
  ]
}
